Molecular target: T1, 人胸苷激酶1(TK1) (human) (UniProt P04183)
T1 sequence (looked up): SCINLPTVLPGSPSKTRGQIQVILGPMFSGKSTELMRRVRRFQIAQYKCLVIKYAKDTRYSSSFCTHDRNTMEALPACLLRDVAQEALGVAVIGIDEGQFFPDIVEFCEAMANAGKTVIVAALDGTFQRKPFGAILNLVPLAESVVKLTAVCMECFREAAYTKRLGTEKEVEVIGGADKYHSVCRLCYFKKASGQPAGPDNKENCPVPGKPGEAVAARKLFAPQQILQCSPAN
Assay: cell-based or functional assay

肿瘤细胞凋亡频率 (Annexin V-FITC/PI), KATO-Ⅲ, 10μg/ml antibody, 72 h: 3.49 倍 | 肿瘤细胞凋亡频率 (Annexin V-FITC/PI), KATO-Ⅲ(STEM), 10μg/ml antibody, 72 h: 2.59 倍 | 肿瘤细胞凋亡频率 (Annexin V-FITC/PI), NCI-N87, 10μg/ml antibody, 72 h: 1.46 倍 | 肿瘤细胞凋亡频率 (Annexin V-FITC/PI), NCI-N87(STEM), 10μg/ml antibody, 72 h: 2.21 倍 | 肿瘤细胞生存活力 (CCK-8), KATO-Ⅲ, 100μg/ml antibody, 72 h: 56.3% | 肿瘤细胞生存活力 (CCK-8), KATO-Ⅲ(STEM), 100μg/ml antibody, 72 h: 66.6% | 肿瘤细胞生存活力 (CCK-8), NCI-N87, 100μg/mL antibody, 72 h: 85% | 肿瘤细胞生存活力 (CCK-8), NCI-N87(STEM), 100μg/mL antibody, 72 h: 66.6%
B1: 鼠抗人胸苷激酶1-IgG单克隆抗体(SSTK小鼠杂交瘤细胞株057M) (antibody, V domains shown)
VH: EVKLVESGGGLAQPGGSLRLSCATSGFTFSDYYMNWVRQPPGKAFEWLGFIRNKEYGNTAEYNPSLKGRFTISRDDSQSILYLQMNTLRVEDSAIYYCARDGAFDYWGQGTSLTVSS
VL: DIVMTQSPASLAVSLGQRATISCRASKSVSTSGYSYMHWNQQKPGQPPKLLIYLASNLESGVPARFSGSGSGTDFTLNIHPVEEEDAATYYCQESREFPTVGGGTNLEIK
